The target of this experiment is heme. Kind of experiment: UV-vis spectroscopy, as-purified Soret peak (412 nm). The note with it: 50 µg of purified protein, as-purified (black trace); parent: est. 0.32; read off a plot.

Take “CcmF:6×His wild type (from UniProt P33927) W229A”: the response worked out at 0.2 Abs.

For “CcmF:6×His wild type (from UniProt P33927) Y231A”, the response is 0.18 Abs.

Source of the values: PMC10746174.
